Experimental data reported in paper PMC9020658.

Biological target: UAF (Rrn5-Rrn9-Rrn10-Uaf30-H3-H4);TBP (TATA-box-binding protein) ((budding yeast);(budding yeast)) (UniProt Q02983+P53437+P38204+Q08747+P61830+P02309+P13393)
Test: cryo-EM 2.8 A
Conditions: 30 mM Hepes-NaOH pH 7.5, 30 mM sodium citrate pH 6.0, 250 mM KCl, 2 mM DTT; filter binding 1 h at 4 C; footprinting on ice, then 2.5 mM MgCl2, 0.5 mM CaCl2 …

In the case of “GAAAAAAAAAATATACGCTAAGATTTTTGGAGAATAGCTTAAATTGAAGTTTTTCTCGGCGAGAAATACGTAGTTAAGGCAGAGCGACAGAGAGGGCAAAAGAAAATAAAAGTAAGATTTTAGTTTGTAATGGGAGGGGGGGTTTAGTCAT (double strand) [35S rRNA promoter -190/-40 (cryo-EM DNA)]”, the binding is reported as “binds”.
